# Experimental data: the DeepSol protein solubility set
# Experiment: soluble on expression in E. coli; label from the status in PepcDB or PDB records
row,Sequence,soluble on expression in E. coli
1,KRLQQKIEKGELDRMPEVKEADIECCGQHEVCEKDSLLAAVSKKIEYYDDEELDQFIGKEANAYTDEETNQFRDVLYTMQDIDVAGWVRSLQLRGIELPDDLKDEVFLIIGERRNG,soluble
2,KTFEPTNPFFRVVLRPSYLYRGCIMYLPSGFAEKYLSGISGFIKVQLAEKQWPVRCLYKAGRAKFSQGWYEFTLENNLGEGDVCVFELLRTRDFVLKVTAFRVNEYV,not soluble
3,KTNRRSETNIIRFNNSIFSAAVDYLNEMYNKQLGSICEPLINAYADVEQESPRNKQQGYVKVEFLEPDEEHDYTEQTLISLGMEVEHLLQSGVKLNDIAILVRKNKSIPRIADYFDKQLNYKIVSDEAFRLDASLAICMMLDALRYLSDPENRIVKAQLATNYQLQILHSEYDLNSLLLHKAEELFPPAFLERMAELRLMPLYELLEELFSLFELHRIEQQDAYLFAFFDAVTDYLQSHSSDPDSFIRYWNETLSGKTIPSGEVEGIRIFSIHKSKGLEFHTVLLPFCDWKLENETNNQLVWCVPQEAPFNELDIVPVNYSSAMAESVYRTDYLHERLQLWVDNLNLLYVAFTRAGKNLIIWSRKGQRNTMA,not soluble
4,LAWKRMEEHDWTCDCIRCREAGHSDDVAENIELDVMTYEACGGMEHFISFEDFENDVLVGFCRLRFPNDPVRRELQDAAIVRELHVYGNAVGVGQEGDDEDHQHKGYGKKLLEKAEVLARDAGFPKLAVISGIGVRQYYREKLGYKQDGPYVSKRL,not soluble
5,LESKNMTWYRMLLVTPVRQGEKVRKFFLHAFHSFEYRALSSGTEEEGLVLTVNDSERTEEIFSCCEKMKAFCKNFLGETPQILCSRAYQQGDDSSLLYEQTKAYAKGRSAEQILIVPQNAEEGDGTDTLLKRVQTYIRNHYTERLTLADIAEAVHVSSSYLSRFYKLKAGENLFDTINSLRVEKAKELLLRGDKKIYEIAALTGFEDTAYFSKVFKKYAGCPPKEYEQSGGRNL,not soluble
6,LGKLDVLKVSAPWLASLRDELDQTCFLAVWGNKGPTVVYVEPSMGAVTLVTQIGSVLPLLSSSTGLVFDSFLAQGETALLREQETPRLSADQLHEVERHIKQIRATGVHQIQGMLMPGINAASSPLFAMGNKLVGVITVVGPGSVLNDKAQGQAARRLLETATAISERMGGSQLRS,soluble
7,LGVDRAKQIQALAKGTFGINIALDAFTLELRLLVEQIEFIEEQISVIEEAIDQVMEEMRPSKDTAYRHVLETIPGIGPVLAASIIGEIGDINRFPNAKALVAYAGLDATVRSSGQFEGTRNRISKRGSPVLRHSIWLAAVSARRFNPEMKEFFEKKRSEGKHTLVATGAVARRMVHLIYSLWKDNRPFDPNYQWSPTNSR,soluble
8,LHRIVDKMHDTSTGIRPSPNMEQGSTYKKTFLGSSLVDWLISSNFAASRLEAVTLASMLMEENFLRPVGVRSMGAIRSGDLAEQFLDDSTALYTFAESYKKKVSSKE,soluble
9,LLQHAYNPINWYSWNDEAFKKAKEEDKPIFLSVGYSTCHWCHVMEKESFEDEEVAEIMNRNFVAIKVDKEERPDVDSVYMTVCQAMTGSGGWPMTIIMTPDKKPFFAGTYFPKYSRYNRPGVIDLLENVSEKWNTSRDILIKSGDEIIEAL,not soluble
10,LMPLRDIVIFPTMVQPLFVGRRFSIRAIEEANKKDKLIFLVLQKDKDVEEPKEEDIYKVGVVAYILRTVPIEDARVKVLVQGLKRGVIKKLEWKEDHYVAQVDVIEERDIPPESQTIEDKALIKAVKESIDKLVSLGKQIIPDLVVLIKELEEPGKLADMVASILDIKSSQAQEILETFDPRERLKK,soluble
11,LNIHVTIREATEGDLEQMVHMLADDVLGRKRERYEKPLPVSYVRAFKEIKKDKNNELIVACNGEEIVGMLQVTFTPYLTYQGSWRATIEGVRTHSAARGQGIGSQLVCWAIERAKERGCHLIQLTTDKQRPDALRFYEQLGFKASHEGLKMHF,soluble
12,LRANKPVFKNAGATLHDIGDGIVNLEFHTKMNTLGGEVVDAINRSIGIAEKDFQGIVIGNDGANFSAGANLALVLMYAIEQEYDEIDFMIRAFQNTMMRARYSSIPVVVAPHNLTLGGGCEMTLHADHVQAFAETYIGLVEFGVGLIPAGGGTKEFTLRVSDSFEDGDIQVNNLKNMYMHIATAKVATSAEEARSMGILRKSDGITLNRSRLIADAKAAAISLAEAG,not soluble
13,LRSVFVSGFPRGVDSAQLSEYFLAFGPVASVVMDKDKGVFAIVEMGDVGAREAVLSQSQHSLGGHRLRVRPREQKEFQSPASKSPKG,soluble
14,LRTGIDNVLRAKTGGLIVLGYNENMKGIVDGGFYLDCPFSPASLYELAKMDGAIILNEDGTKILYANTQLNPDNAISSNETGIRHRTAERVAKQTGNLVISISQRRNVITLYHGHL,soluble
15,LSGYAQAGFSSLWLPTASSEKENYNTFDVKRITLRANVAITDKWSVTFIPDFAKRYTNLELYTSFRTCSGFGIRLGQFKTAFSIENQLSPTTIETISCGSMATNFLAAGNGSDPLMGAQSGRDVGLEIYGDLFNDILGYRLGVLNGQGINTLDGSKHKTLEGSLTLRPIECLSFTGSFMSGKTAALNDAPIKINSKQIMAGDLYDRSRWSVGGMFRSKYLDLRSEYLEGKDDDMISKGFYVTGVGRLFKNLDIIGSYDFMDLYERQQVHNITAGLQYWFFPKCRLQAQYVLSNPKGEYNNTHALLTQVQVAF,not soluble
16,LTPLAQMAEGMERQDVSIDKWTLHAKQNLSLTEKEFYQKVQRLKQEYRQYDWVIAREDKMIKAIGTYTDKKNRTSFRLQLVTTLKKHNPTSYLLYEQMSLETPDSWNDTYEQFERETLGIFQEKVVIFTCLNGHLDDNMNIVLQKKANQLLNEFQARSVEHVVEPNFVSISAFTDEWEEYIMTSKHKMNLQIALRSAGMGGKHTVTVGTPIVTTEY,soluble
17,LTRFSAGYGSDSMLEASADIGRRFGPDDSVGIRINAAQRGGETAIDGERTRTTVFALGLDWRGERARLSADIGYQDNRLKRARPNVTLAGDAAKVPGAPDAGSNYAQPWSYSNERDVFGTLRGEYDFNDRITGWAAYGMRQSKEENSLANLNGVNGAGQGKFYRFDNAREDTVNTGEIGLRAKARTGPVGHELVASASYFDLEKKNAYVMDFFNQFDTSIYDPVSYAKPAISSTAFRGNDMDDPAKQGVIRLASYALGDTMSFFDDKVLLTAGIRHQRLYQRDYSYDTGIGGTPYEQSHNSPAAGLVVRVTPQVSLYANYIEALSAGDTAPQTANGLPVVNHGESLAPYVSKQKEVGVKFEHDGLGGGLALFSTDKPRGFVGDDQVFRASGKDRHRGVELTTYGELTRSVRVLGGLTWLDAKQLSTGNAATDGKRVIGVPRFQANLGVEWDIPGVQGLTVDGRVVYTGSSYADAANTLEVPGWTRLDAGLRYMTDIGGHLVTWRARVENIANRDYWSSVGGYPGNGYLVLGGPRTFTLSASMEF,not soluble
18,LYQHMQQQIQVQAAQNIALQDQLQQALIVPNQRIAQLEQQQLSDAKTFQELSKLATDQSQLQDRLNKLAQRSPTHWMASEAEYLVNMAGRKLWLEKDPRTATDLLKSADETIAAMNNPALLPIRKALAKDIAATTNLKSADIEGSVLALDALIGQLDKLPLNRADGEASTAEDTTISGDLNDWQSNLSKTWKALTQDFITIRHRTADVPALLAPDQQWYLVENIRHKLLQSQLALYRYDRAAYHQSLMMARQWIQSYFDVQAHQTSEAIAAIDKLATLELDPITLKAFEAKPLLLQLTSYGELTSLEEPQL,not soluble
19,LYRHFAHRPDDLYRLEWREYETLLARIFQSQGFDVELGPGRGDEGVDIRLIQRDPIGDIVTLVQAKKYGAGNKIDQTQVAALYGIQQSEDANFSMFVTTSAYAPVAKRFSAREKV,not soluble
20,LYVFDMDETLINADCAMIWNAFLVEKGIATQPNFIEEDQRLMALYAEGKMDMEDYLEFCMAPLADMPIAHVLMLVEECVEHHILPKQFEQSKTLIAQLDRDDIDMVIISASVTFLVEAVGRRLGIPVALGIDLVEKHGSYSAEIAGVPSYREGKVIRLKAWLDAQPESYSEVHFYTDSINDLPLCEYADYAYLVNPCPQLKARAD,not soluble
21,MAAAGTLERSFVELSGAERERPRHFREFTVCSIGTANAVAGAVKYSESAGGFYYVESGKLFSVTRNRFIHWKTSGDTLELMEESLDINLLNNAIRLKFQNCSVLPGGVYVSETQNRVIILMLTNQTVHRLLLPHPSRMYRSVSWLSAISFISQITLGVTNVVLERCLLELKEIWILVIPHQAYFDSYRLKLEHHHHHH,not soluble
22,MAAAREPELPQEAPATEPAPPPACRFFLEGRCRFGARCRQPHPGAPAPPGREAQPEAGAKKPPLRTAADVIQRIRWDPRLDPADFSVGYVDRFLGVREEPFSAFCWDQPLAALGPGVLAVPQHRVRFFRFHGRLVWDRASRTDLVFGSGSAAGRGPTILDAPNTEGAHGAEGAEWTLAGTGQEAQAAPKRGSTRPLCTGHQEPGVEEPGELEAAQERALGTAADLGTLAPRGRLAGVTEEALKPTAATRTTLLGGKEAQALGVPGGSAETTEAEWGPAAWPEDKRARLSVAAPCQPRPTHFVALMVTEPGLQAEVTKAQEYLVHVAPHCANFLVPSQNLHLTLALLRLAGAGEEAAAIGALRRALLAPGLNAPPRLSFRKLVLLGPHVLCAPPSPTLESMAQVLSQRLEAEGLSTLQSPGQLHPHLTVAKVPHGSQVHLPKLEFTLSQEVGCQPLQTLWLCRIGRTGGPFQPLAEIRLE,soluble
23,MAACRALKAVLVDLSGTLHIEDAAVPGAQEALKRLRGASVIIRFVTNTTKESKQDLLERLRKLEFDISEDEIFTSLTAARSLLERKQVRPMLLVDDRALPDFKGIQTSDPNAVVMGLAPEHFHYQILNQAFRLLLDGAPLIAIHKARYYKRKDGLALGPGPFVTALEYATDTKATVVGKPEKTFFLEALRGTGCEPEEAVMIGDDCRDDVGGAQDVGMLGILVKTGKYRASDEEKINPPPYLTCESFPHAVDHILQHLLAENLYFQ,soluble
24,MAAFAVDPQAPTLGSEPMMLGSPTSPKTGANAQFLPGFLMGDLPAPVTPQPRSISGPSVGVMEMRSPLLAGGSPPQPVVPAHKDKSGAPPVRSIYDDISSPGLGSTPLTSRRQANISLLQSPLVGATPPVPGQSMFSPANIGQPRKTTLSPAQLDPFYTQGDSLTSEDHLDDTWVTVFGFPQASASYILLQFAQYGNILKHVMSNTGNWMHIRYQSKLQARKALSKDGRIFGESIMIGVKPCIDKNVMENSDRGVLSSPSLAFTTPIRTLGTPTQSGSTPRVSTMRPLATAYKASTSDYQVISDRQTPKKDESLVSRAMEYMFGW,soluble
25,MAAFNDTLRAEIEEKKEDSVSERTTRNGKILNAKDEPEFGMNITPTTLFFKYPIGGIGYSFFTVTNTTSEKQAFKVKSSDNTWFRSKPSVGFIKSGEKVHVRVTFNSPDAGKERPERGSDNKNHVAIFHVAAGDAKTYKEAFAKKAADGVHHFFARHLAEPGAQVDKEADEKAPNGA,soluble
